# Measured values published in US20230357348A1 (AstraZeneca / MedImmune, published 2023).
# Starred links: 1 amine or outer side, 2 acyl side, 3 side chain; linkers in the order of their positions; H or OH if unused. Non-standard residues stand in square brackets, D forms with d. Groups on a side chain read outwards from the residue. No end group written: not given here. *: point of attachment. C20 diacid = O=C(O)CCCCCCCCCCCCCCCCCCC(=O)*; C18 diacid = O=C(O)CCCCCCCCCCCCCCCCC(=O)*; γGlu = O=C(O)[C@H](CCC(=O)[*:2])N[*:1]; αMeF = C[C@](N)(Cc1ccccc1)C(=O)O; AEEA = NCCOCCOCC(=O)O; Aib = CC(C)(N)C(=O)O
# B1: Peptide 518 (peptide)
# peptide: H[Aib]QGTFTSDVSK[αMeF]LDTK([AEEA-AEEA-γGlu-γGlu-C18 diacid])RARDFVQWLLE[Aib]G-OH
# modifications: N-terminus assumed
# SMILES: CC(C)C[C@H](NC(=O)[C@H](Cc1c[nH]c2ccccc12)NC(=O)[C@H](CCC(N)=O)NC(=O)[C@@H](NC(=O)[C@H](Cc1ccccc1)NC(=O)[C@H](CC(=O)O)NC(=O)[C@H](CCCNC(=N)N)NC(=O)[C@H](C)NC(=O)[C@H](CCCNC(=N)N)NC(=O)[C@H](CCCCNC(=O)COCCOCCNC(=O)COCCOCCNC(=O)CC[C@H](NC(=O)CC[C@H](NC(=O)CCCCCCCCCCCCCCCCC(=O)O)C(=O)O)C(=O)O)NC(=O)[C@@H](NC(=O)[C@H](CC(=O)O)NC(=O)[C@H](CC(C)C)NC(=O)[C@](C)(Cc1ccccc1)NC(=O)[C@H](CCCCN)NC(=O)[C@H](CO)NC(=O)[C@@H](NC(=O)[C@H](CC(=O)O)NC(=O)[C@H](CO)NC(=O)[C@@H](NC(=O)[C@H](Cc1ccccc1)NC(=O)[C@@H](NC(=O)CNC(=O)[C@H](CCC(N)=O)NC(=O)C(C)(C)NC(=O)[C@@H](N)Cc1c[nH]cn1)[C@@H](C)O)[C@@H](C)O)C(C)C)[C@@H](C)O)C(C)C)C(=O)N[C@@H](CC(C)C)C(=O)N[C@@H](CCC(=O)O)C(=O)NC(C)(C)C(=O)NCC(=O)O
# B2: Peptide 35 (peptide)
# peptide: H[Aib]QGTFTSDVSK[αMeF]LDTK([AEEA-AEEA-γGlu-C18 diacid])RAQDFVQWLL[Aib]T-OH
# modifications: N-terminus assumed
# SMILES: CC(C)C[C@H](NC(=O)[C@H](Cc1c[nH]c2ccccc12)NC(=O)[C@H](CCC(N)=O)NC(=O)[C@@H](NC(=O)[C@H](Cc1ccccc1)NC(=O)[C@H](CC(=O)O)NC(=O)[C@H](CCC(N)=O)NC(=O)[C@H](C)NC(=O)[C@H](CCCNC(=N)N)NC(=O)[C@H](CCCCNC(=O)COCCOCCNC(=O)COCCOCCNC(=O)CC[C@H](NC(=O)CCCCCCCCCCCCCCCCC(=O)O)C(=O)O)NC(=O)[C@@H](NC(=O)[C@H](CC(=O)O)NC(=O)[C@H](CC(C)C)NC(=O)[C@](C)(Cc1ccccc1)NC(=O)[C@H](CCCCN)NC(=O)[C@H](CO)NC(=O)[C@@H](NC(=O)[C@H](CC(=O)O)NC(=O)[C@H](CO)NC(=O)[C@@H](NC(=O)[C@H](Cc1ccccc1)NC(=O)[C@@H](NC(=O)CNC(=O)[C@H](CCC(N)=O)NC(=O)C(C)(C)NC(=O)[C@@H](N)Cc1c[nH]cn1)[C@@H](C)O)[C@@H](C)O)C(C)C)[C@@H](C)O)C(C)C)C(=O)N[C@@H](CC(C)C)C(=O)NC(C)(C)C(=O)N[C@H](C(=O)O)[C@@H](C)O
# B3: Peptide 519 (peptide)
# peptide: H[Aib]QGTFTSDVSK[αMeF]LDTK([γGlu-γGlu-AEEA-AEEA-γGlu-γGlu-C18 diacid])RARDFVQWLLE[Aib]G-OH
# modifications: N-terminus assumed
# SMILES: CC(C)C[C@H](NC(=O)[C@H](Cc1c[nH]c2ccccc12)NC(=O)[C@H](CCC(N)=O)NC(=O)[C@@H](NC(=O)[C@H](Cc1ccccc1)NC(=O)[C@H](CC(=O)O)NC(=O)[C@H](CCCNC(=N)N)NC(=O)[C@H](C)NC(=O)[C@H](CCCNC(=N)N)NC(=O)[C@H](CCCCNC(=O)CC[C@H](NC(=O)CC[C@H](NC(=O)COCCOCCNC(=O)COCCOCCNC(=O)CC[C@H](NC(=O)CC[C@H](NC(=O)CCCCCCCCCCCCCCCCC(=O)O)C(=O)O)C(=O)O)C(=O)O)C(=O)O)NC(=O)[C@@H](NC(=O)[C@H](CC(=O)O)NC(=O)[C@H](CC(C)C)NC(=O)[C@](C)(Cc1ccccc1)NC(=O)[C@H](CCCCN)NC(=O)[C@H](CO)NC(=O)[C@@H](NC(=O)[C@H](CC(=O)O)NC(=O)[C@H](CO)NC(=O)[C@@H](NC(=O)[C@H](Cc1ccccc1)NC(=O)[C@@H](NC(=O)CNC(=O)[C@H](CCC(N)=O)NC(=O)C(C)(C)NC(=O)[C@@H](N)Cc1c[nH]cn1)[C@@H](C)O)[C@@H](C)O)C(C)C)[C@@H](C)O)C(C)C)C(=O)N[C@@H](CC(C)C)C(=O)N[C@@H](CCC(=O)O)C(=O)NC(C)(C)C(=O)NCC(=O)O
# B4: Peptide 33 (peptide)
# peptide: H[Aib]QGTFTSDVSK[αMeF]LDSK([AEEA-AEEA-γGlu-C18 diacid])RAQDFVQWLE[Aib]T-OH
# modifications: N-terminus assumed
# SMILES: CC(C)C[C@H](NC(=O)[C@H](Cc1c[nH]c2ccccc12)NC(=O)[C@H](CCC(N)=O)NC(=O)[C@@H](NC(=O)[C@H](Cc1ccccc1)NC(=O)[C@H](CC(=O)O)NC(=O)[C@H](CCC(N)=O)NC(=O)[C@H](C)NC(=O)[C@H](CCCNC(=N)N)NC(=O)[C@H](CCCCNC(=O)COCCOCCNC(=O)COCCOCCNC(=O)CC[C@H](NC(=O)CCCCCCCCCCCCCCCCC(=O)O)C(=O)O)NC(=O)[C@H](CO)NC(=O)[C@H](CC(=O)O)NC(=O)[C@H](CC(C)C)NC(=O)[C@](C)(Cc1ccccc1)NC(=O)[C@H](CCCCN)NC(=O)[C@H](CO)NC(=O)[C@@H](NC(=O)[C@H](CC(=O)O)NC(=O)[C@H](CO)NC(=O)[C@@H](NC(=O)[C@H](Cc1ccccc1)NC(=O)[C@@H](NC(=O)CNC(=O)[C@H](CCC(N)=O)NC(=O)C(C)(C)NC(=O)[C@@H](N)Cc1c[nH]cn1)[C@@H](C)O)[C@@H](C)O)C(C)C)C(C)C)C(=O)N[C@@H](CCC(=O)O)C(=O)NC(C)(C)C(=O)N[C@H](C(=O)O)[C@@H](C)O
# B5: Peptide 34 (peptide)
# peptide: H[Aib]QGTFTSDVSK[αMeF]LDSK([AEEA-AEEA-γGlu-C18 diacid])RAQDFVQWLL[Aib]E-OH
# modifications: N-terminus assumed
# SMILES: CC(C)C[C@H](NC(=O)[C@H](Cc1c[nH]c2ccccc12)NC(=O)[C@H](CCC(N)=O)NC(=O)[C@@H](NC(=O)[C@H](Cc1ccccc1)NC(=O)[C@H](CC(=O)O)NC(=O)[C@H](CCC(N)=O)NC(=O)[C@H](C)NC(=O)[C@H](CCCNC(=N)N)NC(=O)[C@H](CCCCNC(=O)COCCOCCNC(=O)COCCOCCNC(=O)CC[C@H](NC(=O)CCCCCCCCCCCCCCCCC(=O)O)C(=O)O)NC(=O)[C@H](CO)NC(=O)[C@H](CC(=O)O)NC(=O)[C@H](CC(C)C)NC(=O)[C@](C)(Cc1ccccc1)NC(=O)[C@H](CCCCN)NC(=O)[C@H](CO)NC(=O)[C@@H](NC(=O)[C@H](CC(=O)O)NC(=O)[C@H](CO)NC(=O)[C@@H](NC(=O)[C@H](Cc1ccccc1)NC(=O)[C@@H](NC(=O)CNC(=O)[C@H](CCC(N)=O)NC(=O)C(C)(C)NC(=O)[C@@H](N)Cc1c[nH]cn1)[C@@H](C)O)[C@@H](C)O)C(C)C)C(C)C)C(=O)N[C@@H](CC(C)C)C(=O)NC(C)(C)C(=O)N[C@@H](CCC(=O)O)C(=O)O
# B6: Peptide 153 (peptide)
# peptide: H[Aib]QGTFTSDVSK[αMeF]LDSK([AEEA-AEEA-γGlu-C20 diacid])RAQDFVRWLL[Aib]E-OH
# modifications: N-terminus assumed
# SMILES: CC(C)C[C@H](NC(=O)[C@H](Cc1c[nH]c2ccccc12)NC(=O)[C@H](CCCNC(=N)N)NC(=O)[C@@H](NC(=O)[C@H](Cc1ccccc1)NC(=O)[C@H](CC(=O)O)NC(=O)[C@H](CCC(N)=O)NC(=O)[C@H](C)NC(=O)[C@H](CCCNC(=N)N)NC(=O)[C@H](CCCCNC(=O)COCCOCCNC(=O)COCCOCCNC(=O)CC[C@H](NC(=O)CCCCCCCCCCCCCCCCCCC(=O)O)C(=O)O)NC(=O)[C@H](CO)NC(=O)[C@H](CC(=O)O)NC(=O)[C@H](CC(C)C)NC(=O)[C@](C)(Cc1ccccc1)NC(=O)[C@H](CCCCN)NC(=O)[C@H](CO)NC(=O)[C@@H](NC(=O)[C@H](CC(=O)O)NC(=O)[C@H](CO)NC(=O)[C@@H](NC(=O)[C@H](Cc1ccccc1)NC(=O)[C@@H](NC(=O)CNC(=O)[C@H](CCC(N)=O)NC(=O)C(C)(C)NC(=O)[C@@H](N)Cc1c[nH]cn1)[C@@H](C)O)[C@@H](C)O)C(C)C)C(C)C)C(=O)N[C@@H](CC(C)C)C(=O)NC(C)(C)C(=O)N[C@@H](CCC(=O)O)C(=O)O
# B7: Peptide 166 (peptide)
# peptide: H[Aib]QGTFTSDVSK[αMeF]LDSK([AEEA-AEEA-γGlu-C18 diacid])RARDFVRWLL[Aib]TE-OH
# modifications: N-terminus assumed
# SMILES: CC(C)C[C@H](NC(=O)[C@H](Cc1c[nH]c2ccccc12)NC(=O)[C@H](CCCNC(=N)N)NC(=O)[C@@H](NC(=O)[C@H](Cc1ccccc1)NC(=O)[C@H](CC(=O)O)NC(=O)[C@H](CCCNC(=N)N)NC(=O)[C@H](C)NC(=O)[C@H](CCCNC(=N)N)NC(=O)[C@H](CCCCNC(=O)COCCOCCNC(=O)COCCOCCNC(=O)CC[C@H](NC(=O)CCCCCCCCCCCCCCCCC(=O)O)C(=O)O)NC(=O)[C@H](CO)NC(=O)[C@H](CC(=O)O)NC(=O)[C@H](CC(C)C)NC(=O)[C@](C)(Cc1ccccc1)NC(=O)[C@H](CCCCN)NC(=O)[C@H](CO)NC(=O)[C@@H](NC(=O)[C@H](CC(=O)O)NC(=O)[C@H](CO)NC(=O)[C@@H](NC(=O)[C@H](Cc1ccccc1)NC(=O)[C@@H](NC(=O)CNC(=O)[C@H](CCC(N)=O)NC(=O)C(C)(C)NC(=O)[C@@H](N)Cc1c[nH]cn1)[C@@H](C)O)[C@@H](C)O)C(C)C)C(C)C)C(=O)N[C@@H](CC(C)C)C(=O)NC(C)(C)C(=O)N[C@H](C(=O)N[C@@H](CCC(=O)O)C(=O)O)[C@@H](C)O
# How the values were obtained:
# [1] = target: human GLP-1 receptor (hGLP-1R) (human, UniProt P43220 24-463); assay: cell-based or functional assay
# [2] = target: human glucagon receptor (hGCGR) (human, UniProt P47871 26-477); assay: cell-based or functional assay
# human glucagon receptor (hGCGR), sequence (P47871 26-477): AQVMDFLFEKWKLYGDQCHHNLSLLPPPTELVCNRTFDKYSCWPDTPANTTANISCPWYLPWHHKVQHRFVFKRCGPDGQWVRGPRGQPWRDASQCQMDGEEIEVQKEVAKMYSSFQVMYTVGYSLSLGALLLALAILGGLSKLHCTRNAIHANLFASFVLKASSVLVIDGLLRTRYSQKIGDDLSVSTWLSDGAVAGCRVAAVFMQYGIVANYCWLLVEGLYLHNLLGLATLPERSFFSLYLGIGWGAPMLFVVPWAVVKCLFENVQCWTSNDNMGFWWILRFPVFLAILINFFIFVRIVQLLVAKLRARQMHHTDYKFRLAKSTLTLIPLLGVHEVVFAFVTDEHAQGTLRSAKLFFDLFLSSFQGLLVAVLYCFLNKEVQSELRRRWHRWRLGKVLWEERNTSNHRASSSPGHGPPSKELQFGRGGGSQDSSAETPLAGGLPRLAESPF
Binder,hGLP-1R EC50 (pM) [1],hGluc-R EC50 (pM) [2]
B1,31 pM,77.3 pM
B2,83.7 pM,335 pM
B3,172 pM,386 pM
B4,213 pM,548 pM
B5,82.4 pM,161 pM
H[Aib]QGTFTSDVSK[αMeF]LDTKRARDFVQWLLE[Aib]G-OH (not fully specified (residue 17)) [Peptide 520],543 pM,1620 pM
B6,41.2 pM,99 pM
B7,48 pM,270 pM
